Assay results taken from US9035028B2, “Temperature sensitive conjugate compositions” (Emory University, priority 2010, dated 2015).

What was measured:
[1] = molecular target: T1, GPIIb/IIIa on human platelets (Homo sapiens, UniProt P05106+P08514); experiment: Flow cytometry: inhibition of fibrinogen binding to human platelets; type: cell-based
T1 construct: endogenous in cells
Description: Human blood was collected by venipuncture with a 21-gauge butterfly needle from healthy volunteers and anticoagulated with citric acid. Platelet-rich plasma (PRP) was obtained by centrifugation (GS-6R centrifuge, Beckman Coulter) at 100×g at room temperature for 10 min.
(§1) Human PRP was diluted 1/50 in modified Tyrode's buffer containing 2 mM MgCl2 and 2 mM CaCl2. Platelets were either activated by addition of 20 μM ADP, or non activated, followed by the incubation with 15 and 50 μg/mL EMP-scFv fusion protein or EMP at 22° C., 32° C. and at 37° C. for 15 min. Mouse platelets were either pre-activated for 10 min by addition of 0.1 U/mL thrombin (Enzyme Research Laboratories), or non activated, before the incubation with 15 and 50 μg/mL of EMP-scFv fusion protein at 22° C., 32° C. or 37° C. for 15 min. In both, human and mouse samples, EMP-scFv was detected via 15 min in-dark incubation with secondary antibody (Penta-His Alexa Fluor 488, Qiagen) directed against the His(6)-tag of the single-chain antibody.
Fibrinogen binding to human activated platelets in the presence of EMP-scFv was determined with a polyclonal rabbit anti-human fibrinogen FITC-labelled antibody (DakoCytomation), while the effects of EMP-scFv on fibrinogen binding to mouse platelets were determined using FITC-conjugated rabbit anti-fibrinogen polyclonal antibody (Cemfret). Fluorescence detection was performed as described above. Samples were measured in a FACSCalibur® flow cytometer (Becton Dickinson), after fixation with 1× CellFIX® (Becton Dickinson).

[2] = Circular dichroism (CD) spectra and thermal transition profile; type: physicochemical
Description: The mathematical fitting of the CD data allowed the determination of the transition temperature (Tt) resulting from conformational change of EMP as the temperature is increased. The mathematical fitting of the CD data to the van't Hoff equation allowed the determination of the transition temperature (Tt) resulting from conformational change of EMP and EMP-scFv as the temperature is increased.
Circular dichroism (CD) spectra were recorded on a Jasco J-810 spectropolarimeter equipped with a PFD-425S Peltier temperature control unit in 0.1 cm sealed quartz cells at concentrations of 7.5 μM (EMP), 8.4 μM (scFv) and 4.1 μM (EMP-scFv) in 50 mM sodium phosphate buffer, pH 7.4. Temperature/wavelength CD-scans were performed within the temperature range from 5° C. to 35° C. with equilibration for 10 min at each temperature. Spectra were obtained from 260 to 190 nm at a resolution of 0.5 nm and at a scanning speed of 50 nm/min. The CD curves represented the average of five measurements and were smoothed using the means-movement method on the interval analysis of the spectral manager program. CD data are reported as mean residue ellipticity ([θ], deg cm^2 dmol^−1). Thermal transition curves were plotted by the mean residue ellipticity as a function of temperature for the disappearance of the random coil and the appearance of the β-turn structure.

[3] = tested on: carotid artery thrombosis; experiment: Ferric chloride-induced mouse carotid artery thrombosis model; type: in vivo; details: compared to the control group
Description: (§2) C57BL/6 mice weighing from 20-25 g were used. Care and use of laboratory animals followed the national guidelines and were approved by the institutional animal care and ethics committees. Mice were anesthetized with isoflurane, following an intra-peritoneal injection with ketamine (100 mg/kg BW) and xylazine (20 mg/kg BW). The body core temperature was monitored with a digital thermometer, and controlled at either 28° C. or 37° C. with a thermal pad (Temperature Controller TR-200, Fine Science Tools Inc.). Reducing the body temperature to 28° C. was achieved by a gradual drop, at a rate of 0.3-0.4° C./min. The mice on the thermal pad were placed under a dissecting microscope (SZ61, Olympus). An incision of the skin was made directly on the top of trachea, and vessels used for experiment were bluntly isolated from surrounding tissues. […] After rinsing with normal saline, a nano-Doppler flow probe (0.5 VB, Transonic) was then positioned over the vessel and the blood flow rate (ml/min) was measured by a transit-time perivascular flow-meter (TS420, Transonic Systems Inc.). […] Jugular vein blood flow was recorded 15 minutes after induction of injury in mice pre-treated with EMP-scFv, eptifibatide or saline. The blood flow recorded at 1 minute was considered as the initial blood flow rate. […]

[4] = molecular target: T2, GPIIb/IIIa on mouse platelets (Mus musculus, UniProt O54890+Q9QUM0); experiment: Flow cytometry: binding to mouse platelets
T2 construct: endogenous in cells
T2 sequence (Q9QUM0 32-1033): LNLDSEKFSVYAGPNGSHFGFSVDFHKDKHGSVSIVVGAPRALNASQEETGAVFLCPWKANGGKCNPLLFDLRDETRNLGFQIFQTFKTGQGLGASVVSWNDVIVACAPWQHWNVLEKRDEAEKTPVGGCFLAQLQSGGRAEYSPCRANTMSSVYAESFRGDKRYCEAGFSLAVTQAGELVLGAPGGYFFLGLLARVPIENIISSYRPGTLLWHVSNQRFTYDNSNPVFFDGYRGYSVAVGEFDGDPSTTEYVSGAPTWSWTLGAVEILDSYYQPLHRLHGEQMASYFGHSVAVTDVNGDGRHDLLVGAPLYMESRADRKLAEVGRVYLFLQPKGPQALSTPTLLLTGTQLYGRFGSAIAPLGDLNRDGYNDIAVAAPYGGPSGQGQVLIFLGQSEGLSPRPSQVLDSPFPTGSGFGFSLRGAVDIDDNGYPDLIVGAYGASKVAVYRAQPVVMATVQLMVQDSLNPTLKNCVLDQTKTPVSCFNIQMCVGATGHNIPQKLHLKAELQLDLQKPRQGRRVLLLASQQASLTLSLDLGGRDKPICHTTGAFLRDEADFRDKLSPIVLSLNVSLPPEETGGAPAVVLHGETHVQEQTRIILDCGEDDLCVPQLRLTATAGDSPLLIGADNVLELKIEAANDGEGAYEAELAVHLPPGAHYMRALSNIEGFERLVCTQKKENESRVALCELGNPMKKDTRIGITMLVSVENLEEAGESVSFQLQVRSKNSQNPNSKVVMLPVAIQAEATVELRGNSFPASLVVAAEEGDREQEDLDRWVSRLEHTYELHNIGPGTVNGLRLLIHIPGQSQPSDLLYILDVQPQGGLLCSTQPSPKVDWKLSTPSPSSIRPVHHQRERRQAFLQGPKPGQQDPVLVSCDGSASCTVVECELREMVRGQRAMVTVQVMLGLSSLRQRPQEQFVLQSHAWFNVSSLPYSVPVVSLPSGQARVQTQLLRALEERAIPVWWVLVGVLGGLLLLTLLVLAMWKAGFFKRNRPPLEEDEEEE
T2 sequence (O54890 26-787): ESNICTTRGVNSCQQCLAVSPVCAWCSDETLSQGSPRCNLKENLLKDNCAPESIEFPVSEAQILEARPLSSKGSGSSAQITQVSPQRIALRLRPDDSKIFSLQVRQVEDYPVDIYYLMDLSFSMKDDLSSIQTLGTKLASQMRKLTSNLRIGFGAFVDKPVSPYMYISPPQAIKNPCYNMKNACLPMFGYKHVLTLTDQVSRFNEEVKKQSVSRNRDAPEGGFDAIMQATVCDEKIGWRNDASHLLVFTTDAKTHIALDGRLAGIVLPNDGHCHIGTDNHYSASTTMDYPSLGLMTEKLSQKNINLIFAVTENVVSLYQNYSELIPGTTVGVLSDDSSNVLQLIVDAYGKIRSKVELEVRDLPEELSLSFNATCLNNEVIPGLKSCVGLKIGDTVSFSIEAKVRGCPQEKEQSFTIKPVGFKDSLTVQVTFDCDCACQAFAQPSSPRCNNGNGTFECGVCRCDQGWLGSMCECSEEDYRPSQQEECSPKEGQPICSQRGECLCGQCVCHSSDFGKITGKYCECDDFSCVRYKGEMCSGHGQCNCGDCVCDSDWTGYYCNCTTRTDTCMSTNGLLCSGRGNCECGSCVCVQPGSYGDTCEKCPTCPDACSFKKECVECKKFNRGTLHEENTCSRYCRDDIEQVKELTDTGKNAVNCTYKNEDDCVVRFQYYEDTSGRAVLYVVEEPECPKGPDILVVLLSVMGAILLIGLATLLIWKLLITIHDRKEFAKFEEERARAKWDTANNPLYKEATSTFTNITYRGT
Description: Mouse blood was collected by intracardiac puncture with a 27-gauge needle from C57BL/6 mice and anticoagulated with non-fractionated heparin (20 U/mL). A volume of 50 μl was washed with 1 mL modified Tyrode's buffer (150 mM NaCl, 2.5 mM KCl, 1.2 mM NaHCO3, 0.1% BSA, 0.1% Glucose) and centrifuged at 1200×g for 6 min. The supernatant was discarded and the pellet was resuspended in 1 mL modified Tyrode's buffer containing 2 mM MgCl2 and 2 mM CaCl2.
as §1

[5] = tested on: jugular venous thrombosis; experiment: Model of jugular venous thrombosis; type: in vivo, mouse; details: 28° C., 15 minutes after the injury, vs control group and 37° C.
Description: as §2

fibrinogen binding to human activated platelets ([1]; 22° C., concentration-dependent): significantly reduced
fibrinogen binding to human activated platelets ([1]; 32° C.): inhibit the binding of fibrinogen
fibrinogen binding to human activated platelets ([1]; 37° C.): not inhibited
binding to activated murine platelets ([4]; 22° C., mouse whole blood): binds
binding to resting mouse platelets ([4]; either 22° C. or 37° C.): did not bind
B1: EMP-scFv: fusion of elastin mimetic polypeptide (EMP) and activation-specific GPIIb/IIIa-blocking single-chain antibody; 704 amino acids, approximately 70 kDa (protein)
chain: MAVPAVGIPAVGIPAVGIPAVGIPAVGIPAVGIPAVGIPAVGIPAVGIPAVGIPAVGIPAVGIPAVGIPAVGIPAVGIPAVGIPAVGIPAVGIPAVGIPAVGIPAVGIPAVGIPAVGIPAVGIPAVGIPAVGIPAVGIPAVGIPAVGIPAVGIPAVGIPAVGIPAVGIPAVGIPAVGIPAVGIPAVGIPAVGIPAVGIPAVGIPAVGIPAVGIPAVGIPAVGIPAVGIPAVGIPAVGIPAVGIPAVGIPAVGIPAVGIPAVGIPAVGIPAVGIPAVGIPAVGIPAVGIPAVGIPAVGIPAVGIPAVGIPAVGIPAVGIPAVGIPAVGIPAVGIPAVGIPAVGIPAVGIPAVGIPAVGIPAVGIPAVGIPAVGIPAVGIPAVGIPAVGIPAVGIPAVGIPAVGIPGGGGSMMAEVQLVESGGGLVQPGGSLRLSCAASGFMFSRYAMSWVRQAPGKGPEWVSGISGSGGSTYYADSVKGRFTVSRDNSKNTLYLQMNSLRAEDTAVYYCARIFTHRSRGDVPDQTSFDYWGQGTLVTVSSGSASAPKLEEGEFSEARVSSELTQDPAVSVALGQTVRITCQGDSLRNFYASWYQQKPGQAPTLVIYGLSKRPSGIPDRFSASSSGNTASLTITGAQAEDEADYYCLLYYGGGQQGVFGGGTKLTVLRQPKAAPSVTLFPPSSAAAGSEQKLISEEDLNSHHHHHH
transition temperature (Tt), disappearance of the random coil ([2]; CD data at 200 nm): 15 °C
transition temperature (Tt), appearance of the β-turn structure ([2]; CD data at 215 nm): 28 °C
temperature at which structural change and hydrophobic collapse were completed ([2]; thermal transition curve): higher than 35 °C
occlusion time ([3]; 28° C.): significantly prolonged
occlusion time ([3]; 37° C.): remained unchanged
percentage of initial blood flow [5]: significantly higher levels of blood flow
